According to patent publication US20220112288A1 (published 2022):
Positions count from the first letter of the chain named.

B1: 75110_02K11A (antibody, V domains shown)
VH: QVQLQESGPGLVKPSQTLSLTCTVSGGSISSGFYYWTWIRQHPGKGLEWIGYISYSGNTYYNPSFKSRLTISVDTSKSQFSLKLSSVTAADTAVYYCARDRPSNFDAFDIWGQGTMVTVSS
VL: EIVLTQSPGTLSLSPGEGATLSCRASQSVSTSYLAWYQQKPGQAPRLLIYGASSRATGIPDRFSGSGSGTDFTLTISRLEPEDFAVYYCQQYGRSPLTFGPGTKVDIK
notes: Tested as non-clonal hybridoma supernatant (AlivaMab Mouse Kappa), detected with anti-mouse Fc and anti-human kappa
B2: CD8B324 (antibody, human IgG1, kappa, V domains shown)
VH: QVQLQQPGADLVKPGASVKLSCKASGYTSTSHWIHWVKQRPGQGLEWIGNIYPGSSSTNYNEKFKRMATLTVDTSSSTVYMVLSSLTSDDSAVYYCARHSPGHRDYAMDYWGLGTSVTVSS
VL: DIVMTQSQKFMPTTVGDRVSITCKASQNVGTAVAWYQQKPGQSPKLLIASASNRYTGVPDRFTGSGSGTDFTLTISTMQSEDLADYFCQQYSTYPLTFGAGTKLEMKR
notes: Full-length human IgG1, kappa
B3: CD8B366 (antibody, human IgG1, kappa, V domains shown)
VH: EVQLQQSGPELVRPGASVKLSCTASGFNIKDDYIHWVKQRPEQGLEWIGRIDPANGNPRYAPKFQDKATLTADTSSNTAYLQLSSLTSEDTAVYYCARDDEGYYYFDVWGAGTSVTVSS
VL: DIKMTQSPSYLAASPGETITINCRASKSISKYLAWYQEKPGKTNKVLIYSGSTLQSGIPSRFSGSGSGTDFTLTISSLEPEDFAIYYCQQHNEYPLTFGDGTRLEIKR
notes: Full-length human IgG1, kappa
B4: 75110_08A13A (antibody, V domains shown)
VH: EVQLVESGGGLVQPGGSLRLSCAASGFIFSSYWMSWVRQAPGKGLEWVANIKQDGSEKYYMDSVKGRFTISRDNAKNSLYLQMNSLRAEDTAVYYCARDNSYYYYGMDVWGQGTTVTVSS
VL: AIQMTQSPSSLSASVGDRVTITCRASQGIRDDLGWYQQKPGKAPKLLIFAASSLQSGVPSSFSGSGSGTDFTLTISSLQPEDFATYYCLHHYNYPYTFGQGTKLEIK
notes: as for B1
B5: 75110_03I23A (antibody, V domains shown)
VH: QVQLQESGPGLVKPSETLSLTCTASGGSITSYYWNWIRQPAGKGLEWIGRIYTSGSTNYNPSLKSRVTMSVDTSKNQFSLKLSSVTAADTAVYYCARDPGYSDAFNIWGQGTMVTVSS
VL: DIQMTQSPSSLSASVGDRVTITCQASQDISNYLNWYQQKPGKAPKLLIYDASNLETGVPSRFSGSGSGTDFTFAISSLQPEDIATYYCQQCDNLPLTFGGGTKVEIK
notes: as for B1
B6: CD8B337 (antibody, human IgG1, kappa, V domains shown)
VH: QVTLKESGPGKVQPSQTLSLTCSFSGFSLSTSGMGVSWIRKPSGKGLEWLAHIFWDDDRRYKSSLKSRLTISKDTSSNQVFLMITSVDTADSATYYCARRVGYGDYAYFDVWGAGTTVTVSS
VL: DIQMTQYPASLSVSVGETVTITCRASENIYSDLAWYQQKQGKSPQLLVYAATNLADGVPSRFSGSGSGTQYSLKINSLQSEDFGNYYCQHFWGTPWTFGGGTKLEIKR
notes: Full-length human IgG1, kappa
B7: 75110_02E22A (antibody, V domains shown)
VH: QVQLQESGPGLVKPSETLSLTCTVSGGSISSFYWSWIRQPAGKGLEWIGRIYTSGSTNYNPSLKSRVTMSVDTSKNQFSLKLSSVTAADTAVYYCARELEKRNYYGMDVWGQGTTVTVSS
VL: DIQMTQSPSSLSASVGDRVTITCQASHDISNYLNWYQQKPGKAPKLLIFDASTLETGVPSRFSGSGSGTYFTFTIRSLQPEDIATYYCQQYDSLPLTFGGGTKVEIK
notes: as for B1
B8: 75110_04D20A (antibody, V domains shown)
VH: B7 VH with G26N, S31D, F32Y, V67I, K81E, K101R, R102Y, N103Y, Y104F, M107V
VL: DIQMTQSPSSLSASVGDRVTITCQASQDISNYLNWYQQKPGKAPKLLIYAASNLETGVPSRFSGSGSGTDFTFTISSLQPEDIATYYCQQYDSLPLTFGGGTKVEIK
notes: as for B1
B9: 75110_04H17A (antibody, V domains shown)
VH: QVQLQESGPGLVKPSETLSLTCTVSGGSISTYYWSWIRQSAGKGLEWIGRIYTSERPNYNPSLKSRVTMSVDTSKNQFSLKLNSVSAADTAVYYCARELERPYYYGMDVWGQGTTVTVSS
VL: B7 VL with I2V, D17G, H27Q, F49Y, D50Y, T53N, Y70D, R76S, I83F, S93N
notes: as for B1
B10: 75110_01C18A (antibody, V domains shown)
VH: EVQLVESGGGLIQPGGSLRLSCAASGFTVSSNYMNWVRQAPGKGLEWVSVIYAGDNTYSADSVKGRFTISRDNSNNTLCLQMNSLRAEDTAVYYCAREGGTTGAFDIWGQGTMVTVSS
VL: DIQMTQSPSSVSASVGDRVTITCRASQGINSWLAWYQQKPGKAPKLLIYAASSLQSGVPSRFSGSGSGTDFTLTISSLQPEDFATYYCQQGNSFPYTFGQGTKLEIK
notes: as for B1
B11: 75110_07J24A (antibody, V domains shown)
VH: QAQLQESGPGLVKPSETLSLTCTVSGGSISSYYYNWIRQPAGKGLEWIGRIYTSGRTDYNPSLKSRVTMSADTSKNQFSLKLSSVTAADTAVYYCARDEGPTDAFDIWGQGTMVTVSS
VL: DIVMTQTPLSLPVTPGEPASISCRSSQSLLDSDDGNTYLDWYLQKPGQSPHLLIYTLSYRASGVPDRFSGSGSGSDFTLKISRVEAEDVGVYYCMQRIEFPFTFGPGTKVDIK
notes: as for B1
B12: 75110_05E05A (antibody, V domains shown)
VH: QVQLQESGPGLVKPSETLSLTCTVSGGSIGSYYWSWIRQPAGKGLEWIGRIYTSGSTNYNPSLKSRVTMSFDTSKNQFSLKLNSVTAADTAVYYCATDGGVGDSLDYWGQGTLVTVSS
VL: B11 VL with H51Q, S75T, R97H
notes: as for B1

Assays:
[1] = target: T1, human CD4 on cells (SKW3 cells; human PBMCs) (human, UniProt P01730 26-458); assay: FACS confirmation, supernatant on human PBMCs, anti-mFc 647, CD4+ gate
T1 construct: whole, on cells; SKW3 CD4 knockout cells served as the negative cell line for the WT vs KO ratios; also called hCD4; SKW3 WT

[2] = target: T1, human CD4 on cells (SKW3 cells; human …); assay: FACS confirmation, supernatant on SKW3 WT cells, anti-mFc 647 (Bkrd gMFI = 3300)
[3] = target: T1, human CD4 on cells (SKW3 cells; human …); assay: FACS confirmation, supernatant on human PBMCs, anti-mFc 647, percent of viable cells
[4] = target: T1, human CD4 on cells (SKW3 cells; human …); assay: FACS confirmation, supernatant on SKW3 WT cells, anti-hu Kappa FITC (Bkrd gMFI = 2500)
[5] = target: T1, human CD4 on cells (SKW3 cells; human …); assay: FACS primary screen, non-clonal hybridoma supernatant; SKW3 WT vs SKW3 CD4 KO cells, anti-mFc-647
[6] = target: T1, human CD4 on cells (SKW3 cells; human …); assay: SKW3 FACS binning; competitor OKT4-A488 added after supernatant (background 2163, max binding 8200)
[7] = target: T1, human CD4 on cells (SKW3 cells; human …); assay: FACS primary screen, non-clonal hybridoma supernatant; SKW3 WT vs SKW3 CD4 KO cells, anti-hKappa-FITC
[8] = target: T1, human CD4 on cells (SKW3 cells; human …); assay: SKW3 FACS binning; competitor RPA-T4-PE-Dazzle 594 added after supernatant (background 783, max binding 15000)
[9] = target: T2, huCD4-HIS (human, UniProt P01730 26-390, limits assumed); assay: ELISA binning; competitor Ibalizumab, 100 ng/mL huCD4-HIS, anti-HIS HRP detection (background 45, max binding 3000000)
T2 construct: Named only in the head of the ELISA binning column; not shown: HIS tag

[10] = target: T1, human CD4 on cells (SKW3 cells; human …); assay: SKW3 FACS binning; competitor OKT4a added after supernatant, anti-hu A647 secondary (background 5000, max binding 35000)
[11] = target: T3, human CD8 on human pan T cells (CD4-negative population) (human, UniProt P01732 22-235; P10966 22-210); assay: flow cytometry, 20 nM antibody on human pan T cells, A647 anti-human IgG Fc; geomean ratio in CD4-negative population
T3 construct: whole, on cells; Target is CD8 as it stands on primary human pan T cells
T3 sequence (P01732 22-235, chain 1 of 2): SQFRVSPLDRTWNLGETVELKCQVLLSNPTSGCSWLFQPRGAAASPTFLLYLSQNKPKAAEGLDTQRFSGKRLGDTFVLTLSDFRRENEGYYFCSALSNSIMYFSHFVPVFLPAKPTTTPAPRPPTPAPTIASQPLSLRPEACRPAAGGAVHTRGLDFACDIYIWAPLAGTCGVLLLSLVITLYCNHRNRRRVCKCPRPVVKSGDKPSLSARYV
T3 sequence (P10966 22-210, chain 2 of 2): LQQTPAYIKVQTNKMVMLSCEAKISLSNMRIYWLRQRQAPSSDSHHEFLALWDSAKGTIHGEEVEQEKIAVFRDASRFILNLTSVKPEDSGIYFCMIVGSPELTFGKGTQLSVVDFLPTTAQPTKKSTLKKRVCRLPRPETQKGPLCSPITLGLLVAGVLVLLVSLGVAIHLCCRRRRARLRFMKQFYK

Binder	CD4+ gate RL1 Binding [1]	gMFI [2] [gMFI]	CD4+ Percent Bound of Viable [3] [%]	gMFI [4] [gMFI]	SKW3 WT vs KO anti-mFc-647 [5] [fold]	OKT4 A488 signal in binning [6]	SKW3 WT vs KO anti-hKappa-FITC [7] [fold]	RPA-T4-PE-Dazzle 594 signal in binning [8]	Ibalizumab ELISA binning signal [9]	OKT4a anti-hu A647 signal in binning [10]	Cell Binding to Human PanT Signal/Background (of CD4 negative population) [11] [signal/background]
B1	296000	24800	29	6660	10.3	8730	3.3	15800	1.99e+06	32200	–
B2	–	–	–	–	–	–	–	–	–	–	1610
B3	–	–	–	–	–	–	–	–	–	–	318
B4	258000	9180	29	3140	2.7	7980	1	13300	230000	42000	–
B5	241000	13800	28	5140	4.1	9920	1.9	14000	1.26e+06	15900	–
B6	–	–	–	–	–	–	–	–	–	–	1980
B7	276000	17300	31	4280	4.7	8480	1.6	15300	1.86e+06	41900	–
B8	174000	21900	28	6790	4.5	7370	2.3	17100	2.11e+06	29200	–
B9	302000	27200	30	7430	2.9	9440	1.6	16800	1.89e+06	34000	–
B10	308000	34900	31	6530	14.7	9490	3.7	16500	1.78e+06	36200	–
B11	234000	30900	33	5830	6.2	7730	1.8	8460	215000	33800	–
B12	227000	38800	28	8320	9.4	9100	3.2	16500	1.64e+06	35500	–
